These are literature values, as cited in PMC8031367.

As usually defined, the pKa is the negative logarithm of the acid dissociation constant.

This series deals with Cys403 (UniProt position 403, RPVIHCRAGVG). As to the kind of experiment: chemical modification.

Regarding “YopH (Yersinia protein tyrosine phosphatase) (Yersinia pestis (as stated for YopH in this article; the title of the cited source, ref 59, says only 'Yersinia'))”, the pKa is listed as 4.67.
